Test results from publication PMC6411374, “Substrate channeling in oxylipin biosynthesis through a protein complex in the plastid envelope of Arabidopsis thaliana” (Journal of Experimental Botany, 2019).

Legend:
[1] = molecular target: T1, AOS (CYP74A) (Arabidopsis thaliana, UniProt Q96242); test: cis-(+)-12-OPDA formation by free enzymes, HPLC / GC-MS; format: biochemical; conditions: free enzymes (SDS-dissociated, dialyzed complex), read-out coupled through AOC2; 10 min
T1 construct: free enzyme from SDS-dissociated, dialyzed envelope complex; bacterially expressed C-terminal (His)6 AOS, imported into Arabidopsis chloroplasts (transit peptide cleaved)
T1 sequence (Q96242 34-518): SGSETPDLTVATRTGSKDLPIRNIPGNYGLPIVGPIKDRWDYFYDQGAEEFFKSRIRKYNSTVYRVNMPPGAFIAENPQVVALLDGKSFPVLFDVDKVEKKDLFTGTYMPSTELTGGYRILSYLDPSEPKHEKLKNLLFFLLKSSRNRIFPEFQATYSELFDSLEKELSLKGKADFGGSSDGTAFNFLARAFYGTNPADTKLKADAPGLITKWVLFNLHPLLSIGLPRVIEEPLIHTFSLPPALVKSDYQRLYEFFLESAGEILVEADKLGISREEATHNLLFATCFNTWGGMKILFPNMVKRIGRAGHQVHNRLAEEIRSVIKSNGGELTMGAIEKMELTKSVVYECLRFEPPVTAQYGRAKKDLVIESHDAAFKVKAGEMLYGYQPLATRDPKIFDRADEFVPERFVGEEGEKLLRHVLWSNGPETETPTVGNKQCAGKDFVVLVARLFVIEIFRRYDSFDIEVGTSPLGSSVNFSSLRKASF

[2] = molecular target: LOX2-AOS-AOC2 plastid envelope complex (Arabidopsis thaliana, UniProt P38418); conditions: intact complex, coupled LOX2-AOS-AOC2 turnover; α-LeA is the LOX2 substrate
[3] = molecular target: T2, C-terminal, (His)6-tagged allene oxide synthase [AOS-(His)6] (A. thaliana, UniProt Q96242 34-518); test: cell-based or functional assay
T2 sequence (looked up): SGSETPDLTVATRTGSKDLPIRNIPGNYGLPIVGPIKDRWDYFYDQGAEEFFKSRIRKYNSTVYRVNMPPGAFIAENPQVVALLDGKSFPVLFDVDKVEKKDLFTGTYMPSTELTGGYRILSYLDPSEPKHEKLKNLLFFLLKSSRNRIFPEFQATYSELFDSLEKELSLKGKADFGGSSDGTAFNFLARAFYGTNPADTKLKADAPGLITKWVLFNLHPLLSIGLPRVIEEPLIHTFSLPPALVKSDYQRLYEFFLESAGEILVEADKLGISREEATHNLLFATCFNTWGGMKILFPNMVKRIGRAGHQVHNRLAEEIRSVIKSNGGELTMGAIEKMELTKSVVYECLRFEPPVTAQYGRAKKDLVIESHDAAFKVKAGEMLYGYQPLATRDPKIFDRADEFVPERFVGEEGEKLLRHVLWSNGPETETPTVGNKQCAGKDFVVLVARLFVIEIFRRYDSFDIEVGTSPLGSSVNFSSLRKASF

[4] = molecular target: T2, C-terminal, (His)6-tagged allene oxide …; test: pull-down; purified (His)6-tagged bait imported into isolated Arabidopsis chloroplasts (2.5 mM Mg-ATP); mixed envelopes solubilised with 1.3% decyl maltoside; Ni-NTA affinity chromatography, size exclusion on Superose 6 (peak I, ~250 kDa); co-purified bands identified by SDS-PAGE with protein sequencing, LOX2 also by western blot; conditions: one partner purified
[5] = molecular target: T3, soluble, catalytically active AOS used for reconstitution of the complex (A. thaliana, UniProt Q96242 34-518); test: reconstitution of the complex in vitro; complex reconstituted from soluble, catalytically active LOX2, AOS and AOC2 and isolated plastid envelope lipids (Supplementary Fig. S8)
T3 construct: allene oxide synthase (AOS, CYP74A), A. thaliana
T3 sequence: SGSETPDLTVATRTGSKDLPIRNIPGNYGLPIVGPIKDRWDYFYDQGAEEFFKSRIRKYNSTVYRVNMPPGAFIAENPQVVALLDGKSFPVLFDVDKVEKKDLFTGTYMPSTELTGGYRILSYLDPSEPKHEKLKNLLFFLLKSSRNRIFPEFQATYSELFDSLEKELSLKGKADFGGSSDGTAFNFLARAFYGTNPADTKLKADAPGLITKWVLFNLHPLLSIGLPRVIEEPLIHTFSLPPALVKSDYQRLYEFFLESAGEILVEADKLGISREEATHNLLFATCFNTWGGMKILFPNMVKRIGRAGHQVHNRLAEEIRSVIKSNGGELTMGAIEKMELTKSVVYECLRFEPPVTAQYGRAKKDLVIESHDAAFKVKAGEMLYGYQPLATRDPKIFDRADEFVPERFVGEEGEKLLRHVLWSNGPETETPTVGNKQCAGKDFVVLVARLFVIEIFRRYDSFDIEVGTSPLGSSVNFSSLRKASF

[6] = molecular target: the molecule itself; test: SDS-PAGE with protein sequencing; bands of the proteins co-purified with AOS-(His)6 in peak I; ~72 kDa and ~24 kDa bands both sequenced as AOC2

With `CC/C=C\C[C@@H](/C=C/C=C\CCCCCCCC(=O)O)OO` [13-HPOT, (9Z11E15Z13S)-13-hydroperoxy-9,11,15-octadecatrienoic acid] the “cis-(+)-12-OPDA formation by free enzymes, HPLC / GC-MS” value [1] was “but it was accepted in the free-enzyme assay (Fig. 5C)”.

`CC/C=C\C/C=C\C/C=C\CCCCCCCC(=O)O` [α-linolenic acid] was tested, and the “cis-(+)-12-OPDA formation by isolated complex, HPLC / GC-MS” value [2] was “α-LeA was converted to cis-(+)-12-OPDA by the isolated, intact (non-SDS-dissociated) plastid envelope complex”.

B1: lipoxygenase 2 (LOX2), endogenous in the envelope of Arabidopsis chloroplasts (enzyme, UniProt P38418 57-896, looked up)
chain: ANIEQEGNTVKEPIQNIKVKGYITAQEEFLEGITWSRGLDDIADIRGRSLLVELISAKTDQRITVEDYAQRVWAEAPDEKYECEFEMPEDFGPVGAIKIQNQYHRQLFLKGVELKLPGGSITFTCESWVAPKSVDPTKRIFFSDKSYLPSQTPEPLKKYRKEELETLQGKNREEVGEFTKFERIYDYDVYNDVGDPDNDPELARPVIGGLTHPYPRRCKTGRKPCETDPSSEQRYGGEFYVPRDEEFSTAKGTSFTGKAVLAALPSIFPQIESVLLSPQEPFPHFKAIQNLFEEGIQLPKDAGLLPLLPRIIKALGEAQDDILQFDAPVLINRDRFSWLRDDEFARQTLAGLNPYSIQLVEEWPLISKLDPAVYGDPTSLITWEIVEREVKGNMTVDEALKNKRLFVLDYHDLLLPYVNKVRELNNTTLYASRTLFFLSDDSTLRPVAIELTCPPNINKPQWKQVFTPGYDATSCWLWNLAKTHAISHDAGYHQLISHWLRTHACTEPYIIAANRQLSAMHPIYRLLHPHFRYTMEINARARQSLVNGGGIIETCFWPGKYALELSSAVYGKLWRFDQEGLPADLIKRGLAEEDKTAEHGVRLTIPDYPFANDGLILWDAIKEWVTDYVKHYYPDEELITSDEELQGWWSEVRNIGHGDKKDEPWWPVLKTQDDLIGVVTTIAWVTSGHHAAVNFGQYGYGGYFPNRPTTTRIRMPTEDPTDEALKEFYESPEKVLLKTYPSQKQATLVMVTLDLLSTHSPDEEYIGEQQEASWANEPVINAAFERFKGKLQYLEGVIDERNVNITLKNRAGAGVVKYELLKPTSEHGVTGMGVPYSISI
notes: lipoxygenase 2 (LOX2), A. thaliana, ~100 kDa band of the plastid envelope; also called 13-lipoxygenase; source: endogenous, envelopes of isolated Arabidopsis chloroplasts
B1 was tested, and the “rate of cis-(+)-12-OPDA formation from α-LeA by the intact LOX2-AOS-AOC2 envelope complex against the free-enzyme assay (complex dissociated with SDS and dialysed)” value [3] was 120 fold and the “stoichiometry N” value [4] was 1.

B2: soluble, catalytically active LOX2 used for reconstitution of the complex (enzyme, A. thaliana, UniProt P38418 57-896, looked up)
chain: ANIEQEGNTVKEPIQNIKVKGYITAQEEFLEGITWSRGLDDIADIRGRSLLVELISAKTDQRITVEDYAQRVWAEAPDEKYECEFEMPEDFGPVGAIKIQNQYHRQLFLKGVELKLPGGSITFTCESWVAPKSVDPTKRIFFSDKSYLPSQTPEPLKKYRKEELETLQGKNREEVGEFTKFERIYDYDVYNDVGDPDNDPELARPVIGGLTHPYPRRCKTGRKPCETDPSSEQRYGGEFYVPRDEEFSTAKGTSFTGKAVLAALPSIFPQIESVLLSPQEPFPHFKAIQNLFEEGIQLPKDAGLLPLLPRIIKALGEAQDDILQFDAPVLINRDRFSWLRDDEFARQTLAGLNPYSIQLVEEWPLISKLDPAVYGDPTSLITWEIVEREVKGNMTVDEALKNKRLFVLDYHDLLLPYVNKVRELNNTTLYASRTLFFLSDDSTLRPVAIELTCPPNINKPQWKQVFTPGYDATSCWLWNLAKTHAISHDAGYHQLISHWLRTHACTEPYIIAANRQLSAMHPIYRLLHPHFRYTMEINARARQSLVNGGGIIETCFWPGKYALELSSAVYGKLWRFDQEGLPADLIKRGLAEEDKTAEHGVRLTIPDYPFANDGLILWDAIKEWVTDYVKHYYPDEELITSDEELQGWWSEVRNIGHGDKKDEPWWPVLKTQDDLIGVVTTIAWVTSGHHAAVNFGQYGYGGYFPNRPTTTRIRMPTEDPTDEALKEFYESPEKVLLKTYPSQKQATLVMVTLDLLSTHSPDEEYIGEQQEASWANEPVINAAFERFKGKLQYLEGVIDERNVNITLKNRAGAGVVKYELLKPTSEHGVTGMGVPYSISI
notes: lipoxygenase 2 (LOX2), A. thaliana
With B2 the “stoichiometry N” value [5] was 1.

B3: allene oxide cyclase 2 (AOC2), endogenous in the envelope of Arabidopsis chloroplasts (enzyme, UniProt Q9LS02 78-253, looked up)
chain: PSKVQELSVYEINELDRHSPKILKNAFSLMFGLGDLVPFTNKLYTGDLKKRVGITAGLCVVIEHVPEKKGERFEATYSFYFGDYGHLSVQGPYLTYEDSFLAITGGAGIFEGAYGQVKLQQLVYPTKLFYTFYLKGLANDLPLELTGTPVPPSKDIEPAPEAKALEPSGVISNYTN
notes: allene oxide cyclase 2 (AOC2), A. thaliana, ~72 kDa (SDS-resistant trimer) and ~24 kDa (monomer) bands of the plastid envelope; Found both as trimer and as monomer; source: endogenous, envelopes of isolated Arabidopsis chloroplasts
In the case of B3, the “rate of cis-(+)-12-OPDA formation from α-LeA by the intact LOX2-AOS-AOC2 envelope complex against the free-enzyme assay (complex dissociated with SDS and dialysed)” value [3] is reported as 120 fold, the “stoichiometry N” value [6] is reported as 3 and the “stoichiometry N” value [4] is reported as 4.

B4: soluble, catalytically active AOC2 used for reconstitution of the complex (enzyme, A. thaliana)
chain: PSKVQELSVYEINELDRHSPKILKNAFSLMFGLGDLVPFTNKLYTGDLKKRVGITAGLCVVIEHVPEKKGERFEATYSFYFGDYGHLSVQGPYLTYEDSFLAITGGAGIFEGAYGQVKLQQLVYPTKLFYTFYLKGLANDLPLELTGTPVPPSKDIEPAPEAKALEPSGVISNYTN
notes: allene oxide cyclase 2 (AOC2), A. thaliana
For B4, the “stoichiometry N” value [5] was 4.
